Measured values from patent US20190323037, “REPLICATIVE TRANSPOSON SYSTEM” (HORIZON DISCOVERY LIMITED, published 2019).

How the values were obtained:
[1] = biological target: T1, Helraiser transposase (RepHel, Helitron) (Myotis lucifugus); test: EMSA; 10 mM MgCl2, 100 mM NaCl, pH 7.5, RT; 50 nM oligo; text says cleavage-assay oligonucleotides; conditions: tags: His tag (pFastBac HT-A), TEV-cleaved; insect cells; label: 6-FAM
T1 chain: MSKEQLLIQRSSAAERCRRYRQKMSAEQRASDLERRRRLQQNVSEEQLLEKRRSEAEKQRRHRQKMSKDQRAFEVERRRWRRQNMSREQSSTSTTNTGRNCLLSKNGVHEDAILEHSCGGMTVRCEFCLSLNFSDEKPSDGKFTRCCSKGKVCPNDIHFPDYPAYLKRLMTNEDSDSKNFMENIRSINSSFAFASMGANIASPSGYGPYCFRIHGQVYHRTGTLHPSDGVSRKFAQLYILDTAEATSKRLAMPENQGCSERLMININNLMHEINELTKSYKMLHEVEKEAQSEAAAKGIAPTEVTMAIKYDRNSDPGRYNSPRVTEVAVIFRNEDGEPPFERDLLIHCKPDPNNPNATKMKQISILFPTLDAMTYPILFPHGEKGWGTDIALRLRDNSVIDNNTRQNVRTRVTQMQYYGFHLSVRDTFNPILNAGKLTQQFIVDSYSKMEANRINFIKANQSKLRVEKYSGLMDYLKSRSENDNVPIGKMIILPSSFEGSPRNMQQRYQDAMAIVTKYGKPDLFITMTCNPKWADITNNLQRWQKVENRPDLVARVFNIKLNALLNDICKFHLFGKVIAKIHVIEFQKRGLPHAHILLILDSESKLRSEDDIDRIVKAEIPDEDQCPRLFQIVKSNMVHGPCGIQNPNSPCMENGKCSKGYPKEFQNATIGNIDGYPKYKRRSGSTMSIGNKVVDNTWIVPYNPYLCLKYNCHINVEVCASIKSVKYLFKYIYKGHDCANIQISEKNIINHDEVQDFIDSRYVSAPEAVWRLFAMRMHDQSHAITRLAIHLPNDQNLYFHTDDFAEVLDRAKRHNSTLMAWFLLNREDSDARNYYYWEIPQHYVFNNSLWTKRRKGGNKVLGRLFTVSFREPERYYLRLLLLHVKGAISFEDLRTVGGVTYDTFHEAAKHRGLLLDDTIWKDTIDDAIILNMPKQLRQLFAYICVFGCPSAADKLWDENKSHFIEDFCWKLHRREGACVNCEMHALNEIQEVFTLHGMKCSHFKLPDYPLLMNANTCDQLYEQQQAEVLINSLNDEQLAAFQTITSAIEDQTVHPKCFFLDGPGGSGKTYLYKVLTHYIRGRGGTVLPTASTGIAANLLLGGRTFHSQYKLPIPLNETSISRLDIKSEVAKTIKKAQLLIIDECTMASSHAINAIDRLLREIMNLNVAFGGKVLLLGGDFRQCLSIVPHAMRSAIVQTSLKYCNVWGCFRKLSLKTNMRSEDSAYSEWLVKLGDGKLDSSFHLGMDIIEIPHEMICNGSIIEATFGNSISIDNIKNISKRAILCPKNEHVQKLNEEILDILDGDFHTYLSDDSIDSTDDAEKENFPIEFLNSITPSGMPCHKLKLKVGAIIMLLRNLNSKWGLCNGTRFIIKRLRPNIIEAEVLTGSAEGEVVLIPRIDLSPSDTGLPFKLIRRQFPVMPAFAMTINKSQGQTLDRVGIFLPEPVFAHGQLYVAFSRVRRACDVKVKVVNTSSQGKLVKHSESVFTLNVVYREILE
Method: (§1) Binding of the Helraiser transposase to various DNA oligonucleotides was measured by EMSA using 6% TBE gels (Invitrogen). Purified protein at 15 nM-150 nM was incubated for 30 min at room temperature in binding buffer (50 mM Tris pH 7.5, 100 mM NaCl, 10 mM MgCl₂, 0.5 mM ETDA, 1 mM TCEP) with 50 nM 6-FAM labeled oligonucleotides. After addition of DNA gel loading solution (Quality Biological, INC), samples were run on 6% TBE gels and visualized.

[2] = biological target: T1, Helraiser transposase (RepHel, Helitron); test: EMSA; text says cleavage-assay oligonucleotides bound; conditions: tags: His tag (pFastBac HT-A), TEV-cleaved, insect cells, label: 6-FAM
Method: as §1

Binder	binding result [2]	further results
CACCATATGATCCTATATAATAAAAGAGAAACATGCAAATTGACCATCCC (ssDNA) [Helraiser LTS substrate (+), top strand]	–	binding result [1]: binds
GGGATGGTCAATTTGCATGTTTCTCTTTTATTATATAGGATCATATGGTG (ssDNA, [NONE]) [Helraiser LTS substrate (-), bottom strand]	binds	–
TATATATATACTAGTGGCCCGGTGCACGAAATTCGTGCACATTGAAAGGG (ssDNA, [NONE]) [Helraiser RTS substrate (-), bottom strand]	binds	–
CCCTTTCAATGTGCACGAATTTCGTGCACCGGGCCACTAGTATATATATA (ssDNA) [Helraiser RTS substrate (+), top strand]	–	binding result ([2]; potential hairpin (19-nt palindrome)): binds
